Our source for the expression_or_secretion values is PMC4027190.

The data set can be described thus: western blot (and ELISA for N38S) of culture media. As to conditions: glycan lost; control: wild type.

B1: matrix metalloproteinase-9 (MMP-9): mS38 (protein)
parent chain: MSLWQPLVLVLLVLGCCFAAPRQRQSTLVLFPGDLRTNLTDRQLAEEYLYRYGYTRVAEMRGESKSLGPALLLLQKQLSLPETGELDSATLKAMRTPRCGVPDLGRFQTFEGDLKWHHHNITYWIQNYSEDLPRAVIDDAFARAFALWSAVTPLTFTRVYSRDADIVIQFGVAEHGDGYPFDGKDGLLAHAFPPGPGIQGDAHFDDDELWSLGKGVVVPTRFGNADGAACHFPFIFEGRSYSACTTDGRSDGLPWCSTTANYDTDDRFGFCPSERLYTQDGNADGKPCQFPFIFQGQSYSACTTDGRSDGYRWCATTANYDRDKLFGFCPTRADSTVMGGNSAGELCVFPFTFLGKEYSTCTSEGRGDGRLWCATTSNFDSDKKWGFCPDQGYSLFLVAAHEFGHALGLDHSSVPEALMYPMYRFTEGPPLHKDDVNGIRHLYGPRPEPEPRPPTTTTPQPTAPPTVCPTGPPTVHPSERPTAGPTGPPSAGPTGPPTAGPSTATTVPLSPVDDACNVNIFDAIAEIGNQLYLFKDGKYWRFSEGRGSRPQGPFLIADKWPALPRKLDSVFEERLSKKLFFFSGRQVWVYTGASVLGPRRLDKLGLGADVAQVTGALRSGRGKMLLFSGRRLWRFDVKAQMVDPRSASEVDRMFPGVPLDTHDVFQYREKAYFCQDRFYWRVSSRSELNQVDQVGYVTYDILQCPED
For B1, the expression_or_secretion result is “no change”.
